Results published in publication PMC12717012, “Hierarchical interactions between nucleolar and heterochromatin condensates are mediated by a dual-affinity protein” (Nature Cell Biology, 2025).

Target: T1, His-tagged recombinant Pit, wild type (Pit^WT) (Drosophila melanogaster, UniProt Q9VD51 1-680)
T1 construct: also called His-tagged Pit; pBH4-Pit; source: E. coli BL21, purified (Ni-NTA, size-exclusion chromatography on Superdex 200); not shown: 6×His, N-terminal, kept
Assay: pull-down; His-tagged Pit (5 µM) as bait with purified HP1a as prey (5 µM; titrated from 50 to 5 µM); 20 mM sodium phosphate, 50 mM NaCl, 10 mM imidazole, 4 °C; captured on Ni-NTA magnetic beads; western blot; background control beads + HP1a only
Settings: both partners purified

T1 sequence (Q9VD51 whole entry): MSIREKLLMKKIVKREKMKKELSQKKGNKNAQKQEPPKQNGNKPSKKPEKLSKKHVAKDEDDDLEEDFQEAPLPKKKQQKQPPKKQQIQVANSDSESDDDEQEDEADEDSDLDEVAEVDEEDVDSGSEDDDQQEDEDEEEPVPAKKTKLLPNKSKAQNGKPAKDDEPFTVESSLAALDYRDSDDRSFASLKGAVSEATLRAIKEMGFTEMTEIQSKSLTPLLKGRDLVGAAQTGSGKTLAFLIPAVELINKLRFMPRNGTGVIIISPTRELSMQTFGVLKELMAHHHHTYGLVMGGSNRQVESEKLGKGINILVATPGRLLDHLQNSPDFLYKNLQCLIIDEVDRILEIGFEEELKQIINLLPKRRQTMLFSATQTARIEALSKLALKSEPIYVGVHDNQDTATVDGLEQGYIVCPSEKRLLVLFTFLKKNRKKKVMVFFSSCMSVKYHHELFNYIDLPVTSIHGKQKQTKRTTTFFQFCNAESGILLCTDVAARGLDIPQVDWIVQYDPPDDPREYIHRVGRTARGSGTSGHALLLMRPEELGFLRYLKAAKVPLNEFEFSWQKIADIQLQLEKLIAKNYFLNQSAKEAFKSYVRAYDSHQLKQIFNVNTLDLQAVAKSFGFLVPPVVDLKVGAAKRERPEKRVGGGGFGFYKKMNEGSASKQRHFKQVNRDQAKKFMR

B1: purified HP1a, wild type (HP1a^WT) (natural protein, Drosophila melanogaster, UniProt P05205 1-206, looked up)
chain: MGKKIDNPESSAKVSDAEEEEEEYAVEKIIDRRVRKGKVEYYLKWKGYPETENTWEPENNLDCQDLIQQYEASRKDEEKSAASKKDRPSSSAKAKETQGRASSSTSTASKRKSEEPTAPSGNKSKRTTDAEQDTIPVSGSTGFDRGLEAEKILGASDNNGRLTFLIQFKGVDQAEMVPSSVANEKIPRMVIHFYEERLSWYSDNED
notes: HP1a, Drosophila melanogaster; It speaks of HP1a dimers, but no dimerisation experiment is done here
- binding result: binds
